Results on 21 molecules are retold here after US20260116991A1 (HAINAN SIMCERE ZAIMING PHARMACEUTICAL, published 2026).

To fix the notation:
B1: F3.38.7 human-murine chimeric antibody (antibody, human IgG1, kappa, V domains shown)
VH: QVQLQQSGAELVRPGASVKLSCKASGYTFTDYEIHWVKQTPVLGLEWIGAIDPKTGNTAYNQKFMGKATLTADKSSTTAYMDLRSLTSEDSAVYYCTRYFSFAYWGQGTLVTVSA
VL: DVLMTQTPLSLPVSLGDQASISCRSSQTFVHSNGNTYLQWYLQKPGQSPKLLIYKVSNRFSGVPDRFSGSGSGTDFTLKISRVEAEDLGVYYCFQGSHVPYTFGSGTKLEIKR
notes: Chimeric
B2: F2.23.8 human-murine chimeric antibody (antibody, human IgG1, kappa, V domains shown)
VH: QVQLQQSGAELVRPGASVKLSCKASGYTFTDYEMHWVKQTPVHGLEWFGAIDPETGGTAYNQKFRAKATLTADKSSSTAYMELRSLTSEDSAVYYCTRFYSFAYWGQGTLVTVSA
VL: DVVMTQTPLSLPVSLGDQASISCRSSQSLVHSNGNTYLQWYLQKPGQSPKLLIYKVSNRFSGVPDRFSGSGSGTDFTLKITRVEAEDLGVYFCSQSTHVPYTFGSGTKLEIKR
notes: Chimeric
B3: F3.81.19 human-murine chimeric antibody (antibody, human IgG1, kappa, V domains shown)
VH: QVQLQQSGAELVRPGASVKLSCKASGYTFTDYEMHWVKQTPVHGLEWIGTIDPETGNTAYNQKFKGKATLTADKSSSTAYMELRSLTSEDSAVYYCTRPYSLTYWGQGTLVTVSA
VL: DVLLTQTPLSLPVSLGDQASISCRSSQSFVHSNGDTYLQWYLQKPGQSPKLLIYKVSNRFSGVPDRFSGSGSGTDFTLKISRVEAEDLGVYYCFQGSHVPYTFGSGTKLEIKR
notes: Chimeric
B4: hAb005LH3L1b (antibody, human IgG1, V domains shown)
VH: EVQLVQSGAEVKKPGASVKVSCKASGYTFTDYEMHWVRQAPGQGLEWIGAIDPETGNTAYIQKFKGRATLTTDKSTSTAYMELRSLRSDDTAVYYCTRFYSYSHWGQGTTVTVSS
VL: DIVMTQTPLSLPVTPGEPASISCRSSQSLVHSNRNTYLHWYLQKPGQSPQLLIYKVSNRFSGVPDRFSGSGSGTDFTLKISRVEAEDVGVYYCSQNTHVPPTFGGGTKVEIK
notes: Humanized F3.54.12
B5: hAb007LH2L1 (antibody, human IgG1, V domains shown)
VH: EVQLVQSGAEVKKPGSSVKVSCKASGYTFTDYEMHWVRQAPGQGLEWMGTIDPETGNTAYNQKFKGRVTITADKSTSTAYMELSSLRSEDTAVYYCTRPYSLTYWGQGTLVTVSS
VL: DIVMTQTPLSLPVTPGEPASISCRSSQSFVHSNGDTYLQWYLQKPGQSPQLLIYKVSNRFSGVPDRFSGSGSGTDFTLKISRVEAEDVGVYYCFQGSHVPYTFGQGTKLEIK
notes: Humanized F3.81.19
B6: hAb006LH1L1a (antibody, human IgG1, V domains shown)
VH: EVQLVQSGAEVKKPGSSVKVSCKASGYTFSDYEIHWVRQAPGQGLEWMGAIDPKTGNTAYNQKFMGRVTITADKSTSTAYMELSSLRSEDTAVYYCTRYFSFAYWGQGTLVTVSS
VL: DIVMTQTPLSLPVTPGEPASISCRSSQTFVHSDGNTYLQWYLQKPGQSPQLLIYKVSNRFSGVPDRFSGSGSGTDFTLKISRVEAEDVGVYYCFQGSHVPYTFGQGTKLEIK
notes: Humanized F3.38.7
B7: hAb007LH2L1a (antibody, human IgG1, V domains shown)
VH: EVQLVQSGAEVKKPGSSVKVSCKASGYTFTDYEMHWVRQAPGQGLEWMGTIDPETGNTAYNQKFKGRVTITADKSTSTAYMELSSLRSEDTAVYYCTRPYSLTYWGQGTLVTVSS
VL: DIVMTQTPLSLPVTPGEPASISCRSSQSFVHSDGDTYLQWYLQKPGQSPQLLIYKVSNRFSGVPDRFSGSGSGTDFTLKISRVEAEDVGVYYCFQGSHVPYTFGQGTKLEIK
notes: Humanized F3.81.19
B8: hAb007LH1L1a (antibody, human IgG1, V domains shown)
VH: EVQLVQSGAEVKKPGSSVKVSCKASGYTFSDYEMHWVRQAPGQGLEWMGTIDPETGNTAYNQKFKGRVTITADKSTSTAYMELSSLRSEDTAVYYCTRPYSLTYWGQGTLVTVSS
VL: DIVMTQTPLSLPVTPGEPASISCRSSQSFVHSDGDTYLQWYLQKPGQSPQLLIYKVSNRFSGVPDRFSGSGSGTDFTLKISRVEAEDVGVYYCFQGSHVPYTFGQGTKLEIK
notes: Humanized F3.81.19
B9: hAb006LH1L1b (antibody, human IgG1, V domains shown)
VH: EVQLVQSGAEVKKPGSSVKVSCKASGYTFSDYEIHWVRQAPGQGLEWMGAIDPKTGNTAYNQKFMGRVTITADKSTSTAYMELSSLRSEDTAVYYCTRYFSFAYWGQGTLVTVSS
VL: DIVMTQTPLSLPVTPGEPASISCRSSQTFVHSNANTYLQWYLQKPGQSPQLLIYKVSNRFSGVPDRFSGSGSGTDFTLKISRVEAEDVGVYYCFQGSHVPYTFGQGTKLEIK
notes: Humanized F3.38.7
B10: hAb006LH2L1b (antibody, human IgG1, V domains shown)
VH: EVQLVQSGAEVKKPGSSVKVSCKASGYTFTDYEIHWVRQAPGQGLEWMGAIDPKTGNTAYNQKFMGRVTITADKSTSTAYMELSSLRSEDTAVYYCTRYFSFAYWGQGTLVTVSS
VL: DIVMTQTPLSLPVTPGEPASISCRSSQTFVHSNANTYLQWYLQKPGQSPQLLIYKVSNRFSGVPDRFSGSGSGTDFTLKISRVEAEDVGVYYCFQGSHVPYTFGQGTKLEIK
notes: Humanized F3.38.7
B11: hAb006LH2L1a (antibody, human IgG1, V domains shown)
VH: EVQLVQSGAEVKKPGSSVKVSCKASGYTFTDYEIHWVRQAPGQGLEWMGAIDPKTGNTAYNQKFMGRVTITADKSTSTAYMELSSLRSEDTAVYYCTRYFSFAYWGQGTLVTVSS
VL: DIVMTQTPLSLPVTPGEPASISCRSSQTFVHSDGNTYLQWYLQKPGQSPQLLIYKVSNRFSGVPDRFSGSGSGTDFTLKISRVEAEDVGVYYCFQGSHVPYTFGQGTKLEIK
notes: Humanized F3.38.7
B12: hAb007LH1L1e (antibody, human IgG1, V domains shown)
VH: EVQLVQSGAEVKKPGSSVKVSCKASGYTFSDYEMHWVRQAPGQGLEWMGTIDPETGNTAYNQKFKGRVTITADKSTSTAYMELSSLRSEDTAVYYCTRPYSLTYWGQGTLVTVSS
VL: DIVMTQTPLSLPVTPGEPASISCRSSQSFVHSNVDTYLQWYLQKPGQSPQLLIYKVSNRFSGVPDRFSGSGSGTDFTLKISRVEAEDVGVYYCFQGSHVPYTFGQGTKLEIK
notes: Humanized F3.81.19
B13: hAb007LH1L1c (antibody, human IgG1, V domains shown)
VH: EVQLVQSGAEVKKPGSSVKVSCKASGYTFSDYEMHWVRQAPGQGLEWMGTIDPETGNTAYNQKFKGRVTITADKSTSTAYMELSSLRSEDTAVYYCTRPYSLTYWGQGTLVTVSS
VL: DIVMTQTPLSLPVTPGEPASISCRSSQSFVHSNADTYLQWYLQKPGQSPQLLIYKVSNRFSGVPDRFSGSGSGTDFTLKISRVEAEDVGVYYCFQGSHVPYTFGQGTKLEIK
notes: Humanized F3.81.19
B14: hAb006LH3L1d (antibody, human IgG1, V domains shown)
VH: EVQLVQSGAEVKKPGSSVKVSCKASGYTFTDYEIHWVRQAPGQGLEWMGAIDPKTGNTAYNQKFMGRVTLTADKSTSTAYMELSSLRSEDTAVYYCTRYFSFAYWGQGTLVTVSS
VL: DIVMTQTPLSLPVTPGEPASISCRSSQTFVHSNSNTYLQWYLQKPGQSPQLLIYKVSNRFSGVPDRFSGSGSGTDFTLKISRVEAEDVGVYYCFQGSHVPYTFGQGTKLEIK
notes: Humanized F3.38.7
B15: hAb006LH2L1 (antibody, human IgG1, V domains shown)
VH: EVQLVQSGAEVKKPGSSVKVSCKASGYTFTDYEIHWVRQAPGQGLEWMGAIDPKTGNTAYNQKFMGRVTITADKSTSTAYMELSSLRSEDTAVYYCTRYFSFAYWGQGTLVTVSS
VL: DIVMTQTPLSLPVTPGEPASISCRSSQTFVHSNGNTYLQWYLQKPGQSPQLLIYKVSNRFSGVPDRFSGSGSGTDFTLKISRVEAEDVGVYYCFQGSHVPYTFGQGTKLEIK
notes: Humanized F3.38.7
B16: hAb006LH3L1e (antibody, human IgG1, V domains shown)
VH: EVQLVQSGAEVKKPGSSVKVSCKASGYTFTDYEIHWVRQAPGQGLEWMGAIDPKTGNTAYNQKFMGRVTLTADKSTSTAYMELSSLRSEDTAVYYCTRYFSFAYWGQGTLVTVSS
VL: DIVMTQTPLSLPVTPGEPASISCRSSQTFVHSNVNTYLQWYLQKPGQSPQLLIYKVSNRFSGVPDRFSGSGSGTDFTLKISRVEAEDVGVYYCFQGSHVPYTFGQGTKLEIK
notes: Humanized F3.38.7
B17: hAb007LH1L1b (antibody, human IgG1, V domains shown)
VH: EVQLVQSGAEVKKPGSSVKVSCKASGYTFSDYEMHWVRQAPGQGLEWMGTIDPETGNTAYNQKFKGRVTITADKSTSTAYMELSSLRSEDTAVYYCTRPYSLTYWGQGTLVTVSS
VL: DIVMTQTPLSLPVTPGEPASISCRSSQSFVHSNRDTYLQWYLQKPGQSPQLLIYKVSNRFSGVPDRFSGSGSGTDFTLKISRVEAEDVGVYYCFQGSHVPYTFGQGTKLEIK
notes: Humanized F3.81.19
B18: hAb006LH3L1a (antibody, human IgG1, V domains shown)
VH: EVQLVQSGAEVKKPGSSVKVSCKASGYTFTDYEIHWVRQAPGQGLEWMGAIDPKTGNTAYNQKFMGRVTLTADKSTSTAYMELSSLRSEDTAVYYCTRYFSFAYWGQGTLVTVSS
VL: DIVMTQTPLSLPVTPGEPASISCRSSQTFVHSDGNTYLQWYLQKPGQSPQLLIYKVSNRFSGVPDRFSGSGSGTDFTLKISRVEAEDVGVYYCFQGSHVPYTFGQGTKLEIK
notes: Humanized F3.38.7
B19: hAb007LH1L1d (antibody, human IgG1, V domains shown)
VH: EVQLVQSGAEVKKPGSSVKVSCKASGYTFSDYEMHWVRQAPGQGLEWMGTIDPETGNTAYNQKFKGRVTITADKSTSTAYMELSSLRSEDTAVYYCTRPYSLTYWGQGTLVTVSS
VL: DIVMTQTPLSLPVTPGEPASISCRSSQSFVHSNSDTYLQWYLQKPGQSPQLLIYKVSNRFSGVPDRFSGSGSGTDFTLKISRVEAEDVGVYYCFQGSHVPYTFGQGTKLEIK
notes: Humanized F3.81.19
B20: hAb007LH1L1 (antibody, human IgG1, V domains shown)
VH: EVQLVQSGAEVKKPGSSVKVSCKASGYTFSDYEMHWVRQAPGQGLEWMGTIDPETGNTAYNQKFKGRVTITADKSTSTAYMELSSLRSEDTAVYYCTRPYSLTYWGQGTLVTVSS
VL: DIVMTQTPLSLPVTPGEPASISCRSSQSFVHSNGDTYLQWYLQKPGQSPQLLIYKVSNRFSGVPDRFSGSGSGTDFTLKISRVEAEDVGVYYCFQGSHVPYTFGQGTKLEIK
notes: Humanized F3.81.19
B21: hAb006LH1L1 (antibody, human IgG1, V domains shown)
VH: EVQLVQSGAEVKKPGSSVKVSCKASGYTFSDYEIHWVRQAPGQGLEWMGAIDPKTGNTAYNQKFMGRVTITADKSTSTAYMELSSLRSEDTAVYYCTRYFSFAYWGQGTLVTVSS
VL: DIVMTQTPLSLPVTPGEPASISCRSSQTFVHSNGNTYLQWYLQKPGQSPQLLIYKVSNRFSGVPDRFSGSGSGTDFTLKISRVEAEDVGVYYCFQGSHVPYTFGQGTKLEIK
notes: Humanized F3.38.7

In the experiment the target is T1, murine GPC3-His protein (Sino Biological, Cat. No. 50989-M08B) (murine, UniProt Q8CFZ4 25-558).
T1 construct: Bought protein; also called murine GPC3 protein; mouse GPC3-his protein; not shown: His tag
T1 sequence (Q8CFZ4 25-558 limits assumed): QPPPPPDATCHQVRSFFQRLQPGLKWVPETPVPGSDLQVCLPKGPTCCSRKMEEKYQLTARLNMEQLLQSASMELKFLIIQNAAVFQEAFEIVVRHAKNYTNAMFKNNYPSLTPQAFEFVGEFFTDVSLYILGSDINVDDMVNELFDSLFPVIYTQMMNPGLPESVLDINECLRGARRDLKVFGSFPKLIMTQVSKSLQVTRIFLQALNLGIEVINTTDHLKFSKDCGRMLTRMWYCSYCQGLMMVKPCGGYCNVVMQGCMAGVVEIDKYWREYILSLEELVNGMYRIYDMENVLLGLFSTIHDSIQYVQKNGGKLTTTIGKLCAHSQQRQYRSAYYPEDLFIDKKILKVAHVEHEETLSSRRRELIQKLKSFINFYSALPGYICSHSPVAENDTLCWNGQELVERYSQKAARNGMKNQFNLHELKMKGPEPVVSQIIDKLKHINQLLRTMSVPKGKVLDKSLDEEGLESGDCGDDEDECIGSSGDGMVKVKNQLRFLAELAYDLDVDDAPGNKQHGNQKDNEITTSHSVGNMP
Briefly: ELISA, coated antigen.
Consider B1, for which the binding result was “no binding (tested: 100 nM)”.

Regarding B2, the binding result is reported as “no binding (tested: 100 nM)”.

For B3, the binding result was “no binding (tested: 100 nM)”.

As to B4, the binding result is reported as “no binding”.

B5: the binding result is “no binding”.

Consider B6, for which the binding result is “no binding”.

Regarding B7, the binding result is on record as “no binding”.

In the case of B8, the binding result is on record as “no binding”.

Turning to B9, the binding result is recorded as “no binding”.

On to B10, for which the binding result is “no binding”.

As to B11, the binding result is “no binding”.

In the case of B12, the binding result is “no binding”.

For B13, the binding result was “no binding”.

For the molecule B14, the binding result is on record as “no binding”.

As to B15, the binding result is “no binding”.

In the case of B16, the binding result is reported as “no binding”.

For B17, the binding result is “no binding”.

With B18, the binding result is reported as “no binding”.

Regarding B19, the binding result was “no binding”.

Turning to B20, the binding result is “no binding”.

B21: the binding result is listed as “no binding”.
